Results: the supplement of paper PMC7125110
± gives the standard error. Variants at the floor of the assay were thinned out.

B1: glmS ribozyme (parent)
chain: AUAAAAGCGCCAGAACUACAGAAAUGUAGUUGACGAGGAGGAGGUUUAUCGAAUUUUCGGCGGAUGCCUCCAAA

Assays:
Settings in all cases: with glucosamine-6-phosphate
glucosamine-6-phosphate [1] = variants of: B1; experiment: self-cleavage kobs at 40 uM GlcN6P; higher = faster cleavage; RNA array
Summary of the method: (§1)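 Ribozyme variants carrying barcodes were transcribed in situ on sequenced MiSeq chips by E. coli RNA polymerase and tracked at 37 °C with a hybridised Cy3 probe. They were exposed to 40 μM to 10 mM glucosamine-6-phosphate in HEPES/KCl/Mg(OAc)2 buffer. kobs came from exponential decay fits of normalised per-tile medians, and kcat and KM from weighted Michaelis–Menten fits.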

glucosamine-6-phosphate [2] = variants of: B1; experiment: self-cleavage kobs at 10000 uM GlcN6P; higher = faster cleavage; RNA array
Summary of the method: as §1

glucosamine-6-phosphate [3] = variants of: B1; experiment: self-cleavage kobs at 2500 uM GlcN6P; higher = faster cleavage; RNA array
Summary of the method: as §1

glucosamine-6-phosphate [4] = variants of: B1; experiment: self-cleavage kobs at 640 uM GlcN6P; higher = faster cleavage; RNA array
Summary of the method: as §1

glucosamine-6-phosphate [5] = variants of: B1; experiment: self-cleavage kobs at 160 uM GlcN6P; higher = faster cleavage; RNA array
Summary of the method: as §1

Variant | self-cleavage kobs at 40 uM GlcN6P (glucosamine-6-phosphate [1]) [s⁻¹] | self-cleavage kobs at 10000 uM GlcN6P (glucosamine-6-phosphate [2]) [s⁻¹] | self-cleavage kobs at 2500 uM GlcN6P (glucosamine-6-phosphate [3]) [s⁻¹] | self-cleavage kobs at 640 uM GlcN6P (glucosamine-6-phosphate [4]) [s⁻¹] | self-cleavage kobs at 160 uM GlcN6P (glucosamine-6-phosphate [5]) [s⁻¹]
G9C U47C A53G G62A C68G | < 1e-05 | < 1e-05 | – | – | –
G13A A36U A48G C50G C61G | 0.000674 ± 0.00026 | – | – | – | –
G9U A15C G44C U47C | < 1e-05 | < 1e-05 | < 1e-05 | – | –
G40U U54G | 0.000133 ± 1.9e-05 | 0.00364 ± 0.00066 | 0.00192 ± 0.00049 | 0.00124 ± 0.00029 | –
G7U G62C | < 1e-05 | < 1e-05 | < 1e-05 | < 1e-05 | < 1e-05
A12U G29A U56C | 0.000118 ± 2.9e-05 | – | 0.0018 ± 0.00058 | 0.000685 ± 0.00022 | –
A39G C68G | 2.98e-05 ± 1.4e-05 | 0.000116 ± 1.2e-05 | 0.000286 ± 4.7e-05 | 0.000165 ± 5e-05 | 6.43e-05 ± 1.3e-05
A52U G63C | < 1e-05 | < 1e-05 | – | < 1e-05 | < 1e-05
C16U G40A G62A U69A | < 1e-05 | – | – | – | –
C10A G40A | < 1e-05 | < 1e-05 | < 1e-05 | < 1e-05 | < 1e-05
G9A G29A U31A G35U A36C C70U | < 1e-05 | < 1e-05 | – | – | –
A15G G62U | < 1e-05 | < 1e-05 | – | – | –
A42U C68A | < 1e-05 | < 1e-05 | – | < 1e-05 | < 1e-05
G44C U65G | < 1e-05 | – | – | < 1e-05 | < 1e-05
C11G A36C G37U G38U U49A G63C U65A | < 1e-05 | < 1e-05 | – | – | –
G43U G51A U65G G66A | < 1e-05 | – | – | – | –
A12C A42G C70A | < 1e-05 | 2.91e-05 ± 1.2e-05 | – | – | –
G32U G62U | < 1e-05 | < 1e-05 | < 1e-05 | < 1e-05 | < 1e-05
G9U C68U C70U | < 1e-05 | < 1e-05 | < 1e-05 | < 1e-05 | < 1e-05
G7U C10A A12U A36G C50G | 0.000144 ± 2.8e-05 | 0.000157 ± 3.1e-05 | – | 0.0003 ± 0.0001 | –
